The numbers were not newly measured in article PMC10687467, which cites them from elsewhere.

The target in data set [1] is VLDL receptor (Homo sapiens) (UniProt P98155).
The next data set concerns the target ApoER2 (Homo sapiens) (UniProt Q14114).
Data set [2] concerns the target LDL receptor (Homo sapiens) (UniProt P01130).
The next data set addresses LRP-2 (Homo sapiens) (UniProt P98164).

Chain of LRPAP1 (P30533 35-357): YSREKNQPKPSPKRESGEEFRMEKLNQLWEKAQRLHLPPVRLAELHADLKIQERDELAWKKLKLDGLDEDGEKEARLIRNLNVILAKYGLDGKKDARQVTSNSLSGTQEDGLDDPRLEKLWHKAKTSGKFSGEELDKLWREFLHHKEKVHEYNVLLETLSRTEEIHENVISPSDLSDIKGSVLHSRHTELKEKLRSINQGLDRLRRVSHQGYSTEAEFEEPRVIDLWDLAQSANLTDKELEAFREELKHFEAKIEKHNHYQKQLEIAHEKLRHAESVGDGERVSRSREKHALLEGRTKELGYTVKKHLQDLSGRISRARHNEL
Chain of ApoER2 (Homo sapiens) (Q14114 33-826): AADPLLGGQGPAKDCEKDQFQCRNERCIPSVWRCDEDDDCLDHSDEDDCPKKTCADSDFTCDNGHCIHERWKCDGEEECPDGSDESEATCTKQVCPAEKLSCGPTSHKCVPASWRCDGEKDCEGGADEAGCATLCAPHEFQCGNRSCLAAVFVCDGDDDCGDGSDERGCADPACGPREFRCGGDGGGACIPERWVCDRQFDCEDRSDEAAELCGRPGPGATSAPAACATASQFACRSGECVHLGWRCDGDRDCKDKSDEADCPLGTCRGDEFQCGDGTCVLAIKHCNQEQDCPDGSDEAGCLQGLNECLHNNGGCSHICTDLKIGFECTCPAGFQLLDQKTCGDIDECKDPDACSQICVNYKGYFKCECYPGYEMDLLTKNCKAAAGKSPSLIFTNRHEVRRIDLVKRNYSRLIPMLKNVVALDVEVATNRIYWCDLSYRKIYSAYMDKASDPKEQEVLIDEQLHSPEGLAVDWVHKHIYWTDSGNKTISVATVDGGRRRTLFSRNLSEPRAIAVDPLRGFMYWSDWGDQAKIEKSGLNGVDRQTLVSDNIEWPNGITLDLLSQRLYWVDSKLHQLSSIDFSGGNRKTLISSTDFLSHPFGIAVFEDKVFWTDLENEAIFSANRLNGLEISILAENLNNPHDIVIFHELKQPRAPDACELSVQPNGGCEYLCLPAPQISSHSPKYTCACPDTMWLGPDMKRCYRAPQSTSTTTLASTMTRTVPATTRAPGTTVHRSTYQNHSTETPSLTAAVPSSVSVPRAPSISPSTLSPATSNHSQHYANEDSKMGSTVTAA
Chain of LDL receptor (Homo sapiens) (P01130 22-788): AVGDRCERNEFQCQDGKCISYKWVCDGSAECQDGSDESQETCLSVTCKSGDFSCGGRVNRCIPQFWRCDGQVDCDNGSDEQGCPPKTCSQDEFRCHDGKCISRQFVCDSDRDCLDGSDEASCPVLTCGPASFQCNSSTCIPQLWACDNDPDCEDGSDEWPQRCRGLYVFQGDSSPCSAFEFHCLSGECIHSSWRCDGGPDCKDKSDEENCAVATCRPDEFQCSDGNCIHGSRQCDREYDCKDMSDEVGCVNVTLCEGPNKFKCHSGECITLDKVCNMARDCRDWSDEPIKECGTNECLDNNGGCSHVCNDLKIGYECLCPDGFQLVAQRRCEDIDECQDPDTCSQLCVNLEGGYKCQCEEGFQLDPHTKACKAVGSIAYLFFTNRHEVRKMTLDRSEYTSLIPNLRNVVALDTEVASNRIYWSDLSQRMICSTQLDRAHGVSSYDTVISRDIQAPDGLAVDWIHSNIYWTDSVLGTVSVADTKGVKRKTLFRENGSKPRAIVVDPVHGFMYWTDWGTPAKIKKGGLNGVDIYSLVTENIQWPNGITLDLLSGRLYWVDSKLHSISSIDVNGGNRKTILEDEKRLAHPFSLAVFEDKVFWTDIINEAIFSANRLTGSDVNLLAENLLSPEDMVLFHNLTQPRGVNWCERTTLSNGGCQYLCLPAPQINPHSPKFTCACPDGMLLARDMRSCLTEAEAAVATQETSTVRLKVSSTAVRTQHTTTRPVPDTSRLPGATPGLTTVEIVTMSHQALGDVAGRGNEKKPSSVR

Broadly, the Kd is the equilibrium constant for the complex coming apart. As for LRPAP1 (from UniProt P30533), the dissociation constant Kd in data set [1] is 0.7 nM; in the data set with ApoER2 (Homo sapiens), 5 nM; in data set [2], 250 nM; in the data set with LRP-2 (Homo sapiens) it was 8 nM.
